According to CN111978395A (UNIV SICHUAN, dated 2020):

Assays:
[1] = target: T1, SARS-CoV2病毒表面SPIKE蛋白的RBD结构域 (SARS-CoV2, UniProt P0DTC2 319-541); assay: Biacore blocking experiment, antibody of the hybridoma clone
[2] = target: T1, SARS-CoV2病毒表面SPIKE蛋白的RBD结构域; assay: Biacore (SPR), recombinant antibody against RBD
SARS-CoV2病毒的囊膜蛋白SPIKE = SARS-CoV2病毒的囊膜蛋白SPIKE (SARS-CoV2, UniProt P0DTC2 14-1273); assay: cell-based or functional assay

Row | Binder | 阻断率 [1] [%] | Kd [2] [nM] | EC50(nM), 阻断假病毒感染 (GFP阳性细胞) (SARS-CoV2病毒的囊膜蛋白SPIKE) [nM] | EC50(μg/mL), 阻断假病毒感染 (GFP阳性细胞) (SARS-CoV2病毒的囊膜蛋白SPIKE) [µg/mL]
1 | DK5 (antibody, V domains shown) VH: QVQLQQPGAELVKPGASVKMSCKASGYTFTSYSMHWVKQTPGQGLEWIGAIYPGNGDTSYNQKFKGKATLTADKSSSTAYMQLSSLTSEDSAVYYCARDYHYDGYYVTLDYWGQGTTLTVSS VL: DIQMTQSPSSLSASLGERVSLTCRASQEISGYLSWLQQKPDGTIKRLIYAASTLDSGVPKRFSGSRSGSDYSLTISSLESEDFADYYCLQYASYPWTFGGGTKLEIK | ≥ 60 | < 1 | 0.1 | 0.015
2 | DK7 (antibody, V domains shown) VH: QVQLQQPGAELVKPGASVKMSCKASGYTFTSYSMHWVKQTPGQGLEWIGAIYPGNGDTSYNQKFKGKATLTADKSSSTAYMQLSSLTSEDSAVYYCARDYHYDGYYVTLDYWGQGTTLTVSS VL: DIQMTQSPSSLSASLGERVSLTCRASQEISGYLSWLQQKPDGTIKRLIYAASTLDSGVPKRFSGSRSGSDYSLTISSLESEDFADYYCLQYASYPWTFGGGTKLEIK |  |  | 0.47 | 0.071
3 | DK10 (antibody, V domains shown) VH: QVQLQQPGAELVKPGASVKMSCKASGYTFTSYSMHWVKQTPGQGLEWIGAIYPGNGDTSYTQKFKGKATLTADKSSSTAYMQLNSLTSEDSAVYYCARDYHYDGYYVTLDYWGQGTTLTVSS VL: DIQMTQSPSSLSASLGERVSLTCRASQEISGYLSWLQQKPDGTIKRLIYAASTLDSGVPKRFSGSRSGSDYSLTISSLESEDFADYYCLQYASYPWTFGGGTKLEIK |  |  | 1.63 | 0.245
4 | DK6 (antibody, V domains shown) VH: QVQLQQPGTELVKPGASVKMSCKASGYTFTSYSIHWVKQTPGQGLEWIGAIYPGNGDTSYNQKFKGKATLTADKSSSTAYMQLSSLTSEDSAVYYCARDYHYDGYYVTLDYWGQGTTLTVSS VL: DIQMTQSPSSLSASLGERVSLTCRASQEISGYLSWLQQKPDGTIKRLIYAASTLDSGVPKRFSGSRSGSDYSLTISSLESEDFADYYCLQYASYPWTFGGGTKLEIK | ≥ 60 | < 1 | 0.47 | 0.071
5 | DK11 (antibody, V domains shown) VH: EVQLQQSGPELVKPGASVKISCKASGYSFTGYFMNWVKQSHGKSLEWIGRINPYNGDTFYNQKFKGKATLTVDKSSSTAHMELLSLTSEDSAVYYCGRGYLDYWGQGTTLTVSS VL: DIVMTQSHKFMSTSVGDRVSITCKASQDVSTAVAWYQQKPGQSPKLLIFSASYRYTGVPDRFTGSGSGTDFTFTISSVQAEDLAVYYCQEHYSNPYTFGGGTKLEIK |  |  | 0.34 | 0.051
6 | DK14 (antibody, V domains shown) VH: QVQLQQPGAELVKPGASVKLSCKASGYTFISYWMHWVKQRPGQGLEWIGEIDPSDSYTNSNQKFKGKATLTVDKSSSTAYMQLSSLTSEDSAVYYCARSELWAMDYWGQGTSVTVSS VL: DIVMTQAAFSNPVTLGTSASISCRSSKSLLHSHGITYLYWYLQKPGQSPQLLIYQMSNLASGVPDRFSSSGSGTDFTLRISRVEAEDVGVYYCAQNLELPWTFGGGTKLEIR |  |  | 0.41 | 0.062
7 | DK15 (antibody, V domains shown) VH: QVQLQQPGAEFVMPGASVKMSCKASGYTFTDYWMHWVKQRPGQGLEWIGAIDTSDTYTRYNQKFKDKATLTVDESSSTAYMQLSSLTSEDSAVYYCARFLYYYGNPTFDYWGQGTTLTVSS VL: DVQITQSPSYLAASPGETITINCRASKSISKYLAWYQEKPGKTNKLLIYSGSTLQSGIPSRFSGSGSGTDFTLTISSLEPEDFAMYYCQQHNEYPLTFGAGTKLELK |  |  | 1.27 | 0.191
8 | DK2 (antibody, V domains shown) VH: QVQLQQPGAELVKPGASVKMSCKASGYTFISYSMHWVKQTPGQGLEWIGAIYPGNGDTSYTQKFKGKATLTADKSSTTAYMQLSSLTSEDSAVYYCARDHGNYVLDYWGQGTTLTVSS VL: DIVMTQSHKFMSTSVGDRVSITCKASQDVGTAVAWYQQKPGQSPKLLIYWASTRHTGVPDRFTGSGSGTDFTLTISNVQSEDLADYFCQQYSSYPWTFGGGTKLEIK | ≥ 60 | < 1 | 0.083 | 0.012
